Assay results as given in the Human Domainome abundance scans (Beltran et al. 2025).
± gives the uncertainty stated by the source.

B1: Homeobox protein cut-like 1, residues 941 to 1008; numbered along this chain, P39880 (parent)
chain: QEVDTIELTRQVKEKLAKNGICQRIFGEKVLGLSQGSVSDMLSRPKPWSKLTQKGREPFIRMQLWLNG

Variants of: B1
Assay: abundance fitness (aPCA) (normalised: wild type 0, dead -1); higher = more abundant; growth selection in yeast, the domain comes from the species named
Conditions: Homo sapiens

| Variant | abundance fitness |
| --- | --- |
| QEVDTIELTRQVKEKLAKNGICQRIFGEKVLILSQGSVSDMLSRPKPWSKLTQKGREPFIRMQLWLNG [G32I] | -0.584 ± 0.096 |
| QEVDTIELTRQVKEKLAKNGICQRIFGEKVLKLSQGSVSDMLSRPKPWSKLTQKGREPFIRMQLWLNG [G32K] | -0.1 ± 0.079 |
| QEVDTIELTRQVKEKLAKNGICQRIFGEKVLLLSQGSVSDMLSRPKPWSKLTQKGREPFIRMQLWLNG [G32L] | -0.273 ± 0.054 |
| QEVDTIELTRQVKEKLAKNGICQRIFGEKVLMLSQGSVSDMLSRPKPWSKLTQKGREPFIRMQLWLNG [G32M] | -0.226 ± 0.088 |
| QEVDTIELTRQVKEKLAKNGICQRIFGEKVLNLSQGSVSDMLSRPKPWSKLTQKGREPFIRMQLWLNG [G32N] | -0.204 ± 0.087 |
| QEVDTIELTRQVKEKLAKNGICQRIFGEKVLPLSQGSVSDMLSRPKPWSKLTQKGREPFIRMQLWLNG [G32P] | -0.21 ± 0.083 |
| QEVDTIELTRQVKEKLAKNGICQRIFGEKVLQLSQGSVSDMLSRPKPWSKLTQKGREPFIRMQLWLNG [G32Q] | -0.138 ± 0.097 |
| QEVDTIELTRQVKEKLAKNGICQRIFGEKVLRLSQGSVSDMLSRPKPWSKLTQKGREPFIRMQLWLNG [G32R] | -0.029 ± 0.062 |
| QEVDTIELTRQVKEKLAKNGICQRIFGEKVLSLSQGSVSDMLSRPKPWSKLTQKGREPFIRMQLWLNG [G32S] | -0.195 ± 0.054 |
| QEVDTIELTRQVKEKLAKNGICQRIFGEKVLTLSQGSVSDMLSRPKPWSKLTQKGREPFIRMQLWLNG [G32T] | -0.29 ± 0.071 |
| QEVDTIELTRQVKEKLAKNGICQRIFGEKVLVLSQGSVSDMLSRPKPWSKLTQKGREPFIRMQLWLNG [G32V] | -0.645 ± 0.076 |
| QEVDTIELTRQVKEKLAKNGICQRIFGEKVLWLSQGSVSDMLSRPKPWSKLTQKGREPFIRMQLWLNG [G32W] | -0.377 ± 0.11 |
| QEVDTIELTRQVKEKLAKNGICQRIFGEKVLYLSQGSVSDMLSRPKPWSKLTQKGREPFIRMQLWLNG [G32Y] | -0.415 ± 0.096 |
| QEVDTIELTRQVKEKLAKNGICQRIFGEKVLGASQGSVSDMLSRPKPWSKLTQKGREPFIRMQLWLNG [L33A] | -0.079 ± 0.06 |
| QEVDTIELTRQVKEKLAKNGICQRIFGEKVLGESQGSVSDMLSRPKPWSKLTQKGREPFIRMQLWLNG [L33E] | -0.262 ± 0.081 |
| QEVDTIELTRQVKEKLAKNGICQRIFGEKVLGFSQGSVSDMLSRPKPWSKLTQKGREPFIRMQLWLNG [L33F] | -0.134 ± 0.067 |
| QEVDTIELTRQVKEKLAKNGICQRIFGEKVLGGSQGSVSDMLSRPKPWSKLTQKGREPFIRMQLWLNG [L33G] | -0.219 ± 0.061 |
| QEVDTIELTRQVKEKLAKNGICQRIFGEKVLGHSQGSVSDMLSRPKPWSKLTQKGREPFIRMQLWLNG [L33H] | -0.174 ± 0.083 |
| QEVDTIELTRQVKEKLAKNGICQRIFGEKVLGISQGSVSDMLSRPKPWSKLTQKGREPFIRMQLWLNG [L33I] | 0.144 ± 0.088 |
| QEVDTIELTRQVKEKLAKNGICQRIFGEKVLGKSQGSVSDMLSRPKPWSKLTQKGREPFIRMQLWLNG [L33K] | -0.092 ± 0.07 |

| Variant | abundance fitness |
| --- | --- |
| QEVDTIELTRQVKEKLAKNGICQRIFGEKVLGMSQGSVSDMLSRPKPWSKLTQKGREPFIRMQLWLNG [L33M] | -0.045 ± 0.068 |
| QEVDTIELTRQVKEKLAKNGICQRIFGEKVLGPSQGSVSDMLSRPKPWSKLTQKGREPFIRMQLWLNG [L33P] | -0.49 ± 0.082 |
| QEVDTIELTRQVKEKLAKNGICQRIFGEKVLGQSQGSVSDMLSRPKPWSKLTQKGREPFIRMQLWLNG [L33Q] | -0.232 ± 0.089 |
| QEVDTIELTRQVKEKLAKNGICQRIFGEKVLGRSQGSVSDMLSRPKPWSKLTQKGREPFIRMQLWLNG [L33R] | -0.213 ± 0.059 |
| QEVDTIELTRQVKEKLAKNGICQRIFGEKVLGTSQGSVSDMLSRPKPWSKLTQKGREPFIRMQLWLNG [L33T] | -0.06 ± 0.061 |
| QEVDTIELTRQVKEKLAKNGICQRIFGEKVLGVSQGSVSDMLSRPKPWSKLTQKGREPFIRMQLWLNG [L33V] | 0.025 ± 0.046 |
| QEVDTIELTRQVKEKLAKNGICQRIFGEKVLGWSQGSVSDMLSRPKPWSKLTQKGREPFIRMQLWLNG [L33W] | -0.115 ± 0.076 |
| QEVDTIELTRQVKEKLAKNGICQRIFGEKVLGYSQGSVSDMLSRPKPWSKLTQKGREPFIRMQLWLNG [L33Y] | -0.229 ± 0.078 |
| QEVDTIELTRQVKEKLAKNGICQRIFGEKVLGLAQGSVSDMLSRPKPWSKLTQKGREPFIRMQLWLNG [S34A] | -0.01 ± 0.076 |
| QEVDTIELTRQVKEKLAKNGICQRIFGEKVLGLCQGSVSDMLSRPKPWSKLTQKGREPFIRMQLWLNG [S34C] | -0.09 ± 0.084 |
| QEVDTIELTRQVKEKLAKNGICQRIFGEKVLGLDQGSVSDMLSRPKPWSKLTQKGREPFIRMQLWLNG [S34D] | -0.046 ± 0.1 |
| QEVDTIELTRQVKEKLAKNGICQRIFGEKVLGLEQGSVSDMLSRPKPWSKLTQKGREPFIRMQLWLNG [S34E] | -0.004 ± 0.072 |
| QEVDTIELTRQVKEKLAKNGICQRIFGEKVLGLFQGSVSDMLSRPKPWSKLTQKGREPFIRMQLWLNG [S34F] | 0.008 ± 0.091 |
| QEVDTIELTRQVKEKLAKNGICQRIFGEKVLGLGQGSVSDMLSRPKPWSKLTQKGREPFIRMQLWLNG [S34G] | -0.132 ± 0.056 |
| QEVDTIELTRQVKEKLAKNGICQRIFGEKVLGLHQGSVSDMLSRPKPWSKLTQKGREPFIRMQLWLNG [S34H] | -0.139 ± 0.18 |
| QEVDTIELTRQVKEKLAKNGICQRIFGEKVLGLKQGSVSDMLSRPKPWSKLTQKGREPFIRMQLWLNG [S34K] | 0.017 ± 0.068 |
| QEVDTIELTRQVKEKLAKNGICQRIFGEKVLGLLQGSVSDMLSRPKPWSKLTQKGREPFIRMQLWLNG [S34L] | -0.113 ± 0.049 |
| QEVDTIELTRQVKEKLAKNGICQRIFGEKVLGLMQGSVSDMLSRPKPWSKLTQKGREPFIRMQLWLNG [S34M] | -0.017 ± 0.07 |
| QEVDTIELTRQVKEKLAKNGICQRIFGEKVLGLPQGSVSDMLSRPKPWSKLTQKGREPFIRMQLWLNG [S34P] | 0.101 ± 0.069 |
| QEVDTIELTRQVKEKLAKNGICQRIFGEKVLGLQQGSVSDMLSRPKPWSKLTQKGREPFIRMQLWLNG [S34Q] | -0.125 ± 0.096 |
